Key:
[1] = biological target: insulin receptor construct transfected into 32D cells (Homo sapiens, UniProt P06213); assay: IR autophosphorylation assay in IR transfected 32D cells (ELISA); conditions: MBP fusion peptides, FIG. 30
[2] = test system: MCF-7 cells; assay: MCF-7 cell proliferation assay, agonist format; format: cell-based, human; conditions: MCF-7 and MiaPaCa cell proliferation (Tables 27-28)

stimulation of autophosphorylation of IR [1]	Molecule	IGF-1R agonist activity [2]
active	H2C-3aa-H2C: MBP fusion, H2C dimer peptide (Site 1-Site 1) with 3 amino acid linker (protein, left off: large carriers; small tags and cut ends) NNNNLGIEGRISEFIEGRAQPAMAFHENFYDWFVRQVSGGSFHENFYDWFVRQVSAAAGAPVPYPDPLEPRAA	
	RP30-IGF-12-D112: dimer peptide (Site 1-Site 1) (peptide) ADYKDSFYSCLESLVNGGAERSDGQWEGCRGGSGGSGGSGGSCWARPCGDAANFYDWFVQQASKKAAAGAPVPYPDPLEPRPG	IGF-1R agonist activity
active	H2C-9aa-H2C: MBP fusion, H2C dimer peptide with 9 amino acid linker (protein, left off: large carriers; small tags and cut ends) NNNNLGIEGRISEFIEGRAQPAMAFHENFYDWFVRQVSGGSGGSGGSFHENFYDWFVRQVSAAAGAPVPYPDPLEPRAA	
	D112-12-RP30-IGF: dimer peptide (Site 1-Site 1) (peptide) ADYKDCWARPCGDAANFYDWFVQQASKKGGSGGSGGSGGSSFYSCLESLVNGGAERSDGQWEGCRAAAGAPVPYPDPLEPRPG	IGF-1R agonist activity

Reference: US20090053807A1 (Novo Nordisk A/S, priority 1998, published 2009)
